Source: patent publication US20240325562A1 (LINXIS B V, published 2024)
Changes are numbered by the printed parent chain.

T1: recombinant rPDGFRB ectodomain (rat, UniProt Q05030 32-531)
T1 construct: extracellular domain; also called rPDGFRB-ECD; rat PDGFRB ECD
T1 sequence (looked up): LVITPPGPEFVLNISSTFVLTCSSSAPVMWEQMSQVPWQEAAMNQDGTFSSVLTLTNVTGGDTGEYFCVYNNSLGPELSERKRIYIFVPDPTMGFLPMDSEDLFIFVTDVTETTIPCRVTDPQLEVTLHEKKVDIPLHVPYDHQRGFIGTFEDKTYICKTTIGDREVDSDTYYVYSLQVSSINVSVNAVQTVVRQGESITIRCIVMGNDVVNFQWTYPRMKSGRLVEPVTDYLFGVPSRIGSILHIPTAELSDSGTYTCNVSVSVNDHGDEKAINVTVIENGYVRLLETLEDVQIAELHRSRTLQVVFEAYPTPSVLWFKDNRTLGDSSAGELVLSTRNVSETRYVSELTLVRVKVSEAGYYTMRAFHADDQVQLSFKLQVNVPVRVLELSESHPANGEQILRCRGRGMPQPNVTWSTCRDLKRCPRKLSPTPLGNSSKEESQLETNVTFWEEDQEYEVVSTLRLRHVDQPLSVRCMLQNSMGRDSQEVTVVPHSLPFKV

B1: SP05P (VHH)
VHH: EVQLVESGGGLVQAGGSLRLSCAASGRTSFSGYAMAWFRQAPGKERDFVASITWSYGYTYYTDSAQGRFTISRDSAKNTVYLEMNSLKPEDTAVYYCAADPKASRFRILREYAYWGQGTQVTVSS
notes: From libraries 1 and 2 (raised against hPDGFRB)
B2: SP13P (VHH)
VHH: EVQLVESGGGLVQPGGSLRLSCAASESIFSINYMAWYRQAPGKQRELVAFSIDGSSTNYVDSVRGRFTASRDNAENTLYLQMNSLKPEDTAVYYCYAQGNTWAAGVWGQGTQVTVSS
notes: as for B1
B3: SP10P (VHH)
VHH: EVQLVESGGGLVQAGGSLRLSCAASGRTFNGYAMGWFRQAPGKERDFVAAITWSYGYTHYAESVKGRFSISRDSANNMVYLEMNSLKPEDTAVYYCAADPKASRFRTLRRYDYWGQGTQVTVSS
notes: as for B1
B4: 13A8 (VHH)
VHH: EVQLVESGGGLVPAGGSLRLSCAASGRTFSNYAMGWFRQAPGKERKFVATISWSGGVTYYADSVKGRFTISRDNAKNTVYLLMNSLKPEDTAVYYCAAKRDSSSYDHRRYDYWGQGTQVTVSS
notes: On phage in the phage ELISA; purified from E. coli in the other assays
B5: SP01P (VHH)
VHH: EVQLVESGGGLAQAGGSLRLSCVASGNIDSANGMAWYRQAPGKQRELVAHITSGTSYYVASVEGRFTISRANAKDTWYLQMNSLKPEDTGVYYCFPIGLSAHWSQGTQVTVSS
notes: as for B1
B6: SP36P (VHH)
VHH: EVQLVESGGGLVQAGGSLRLSCTPSITTAGTTIMAWFRQAPGNEREFVAAIWGSKTAYGDSMKGRLTISRDNVRDNGQKTVFLQMNNLQLQDTATYYCAASSGGYVHSSTSYEIWGRGTQVTVSS
notes: From libraries 3 and 4 (raised against rPDGFRB)
B7: SP30P (VHH)
VHH: EVQLVESGGGLVQAGGSLRLSCAASRGTFGTDIMGWFRQAPGKEREFVAAISWRGANTYYGYSVKGRFTISRDNAKNTMYLQMADLKPEDTADYYCGVHLNGTPYYYASGYRYWGQGTQVTVSS
notes: as for B6
B8: SP31P (VHH)
VHH: B7 VHH with D32Y
notes: as for B6
B9: 13F11-13F11-A647 (VHH)
chain: EVQLVESGGRLVQPGDSLRLSCAASGRTFSDNAMGWFRQAPGKERRFVAGISWAGGSTYYSDSVKGRFTISRDNAKNTVYLQMNSLKPEDTAVYYCAAGLRAWVQRMPKDYNYWGQGTQVTVSSGGGGSGGGGSGGGGSEVQLVESGGRLVQPGDSLRLSCAASGRTFSDNAMGWFRQAPGKERRFVAGISWAGGSTYYSDSVKGRFTISRDNAKNTVYLQMNSLKPEDTAVYYCAAGLRAWVQRMPKDYNYWGQGTQVTVSS
modifications: Alexa Fluor 647 coupled by maleimide to the C-terminal free cysteine, which is not in the letters
notes: Bivalent tandem VHH; not shown: C-terminal tail: free Cys, possible thrombin site and His6 tag
B10: SP12P (VHH)
VHH: EVQLVESGGGLVQAGGSLRLSCVISGRTSPTYPMGWFRQSPGNEREFVASINWSGGWRNYADSVKGRFTISRDDAKNTVYLQMNSLKPEDTAVYYCARGQYSSGTPVYAHEYAYWGQGTQVTVSS
notes: as for B1
B11: SP20P (VHH)
VHH: B10 VHH with G66D
notes: as for B1
B12: SP08P (VHH)
VHH: EVQLVESGGGLVQAGGSLRLSCAASGRTFNGYAMAWFRQAPGKERDFVASITWSYGYTYYADSAQGRFTISRDSAKNTVYLEMNSLKPEDTAVYYCAADPKASRFRILRQYAHWGQGTQVTVSS
notes: as for B1
B13: SP27P (VHH)
VHH: EVQLVESGGGLVQIGDSLRLSCAASGGTFNRYGMGWFRQAPGKEREFVAAIRWDGVDTNYADFVKGRFTISRYNAKNTAYLQMNSLKPEDTAVYYCAADRRGLYTKHAHRYDYWGQGTQVTVSS
notes: as for B6
B14: 13G12 (VHH)
VHH: EVQLVESGGGLVQAGGSLRLSCAASGRAFSISSMSWFRQAPGKERVVVASIAWSGDSTYYADSVQGRFTISKDNAKNTLSLQMNSLKPEDTAVYYCSAYTQVSVNNRYWGQGTQVTVSS
notes: the first entry is used; On phage in the phage ELISA
B15: SP14P (VHH)
VHH: EVQLVESGGGLVQAGDSLRLSCVVSGLTFSRYGMGWFRQATGKEREFVGGISVGSSGTMYPNSVKGRFTISRDNAKSTVYLQMNSLKPEDTAVYFCAAIDQGSFVQQRDYRYWGQGTQVTVSS
notes: as for B1
B16: 13A2 (VHH)
VHH: EVQLVESGGGLVQAGGSLRLSCAASGIIFSANTVGWYRQVPGKERDVVASITSGDSTYYGDSVRDRFTISRDNAKNTVYLQMNSLKPDDTAIYYCRARTTDGSYWGQGTQVTVSS
notes: On phage in the phage ELISA; tail applies to the purified protein
B17: 13B12 (VHH)
VHH: B16 VHH with S30G, G54V, D65G, D88E
notes: as for B16
B18: 13D11 (VHH)
VHH: EVQLVESGGGLVQAGGSLRLSCAASGSIFSINYMAWYRQAPGKEREVVASMSWRRDSTYLADSVQGRFTISRNNAKNTMYLQMNSLKPEDTALYYCKANDYWGQGTQVTVSS
notes: as for B16
B19: 13A3 (VHH)
VHH: B18 VHH with S30R, I31L, W53R, R55S, S63A, R72M, K76G
notes: as for B16
B20: 13F4 (VHH)
VHH: B18 VHH with A23V, A40T, W53R, R55S, S63A, K76G
notes: as for B16
B21: SP02P (VHH)
VHH: EVQLVESGGGLVQAGGSLRLSCAASESISSIEQMGWFRQAPGKQRALVAINTYGGRTVYTNSVEGRFTMSRDSAKNMVYLQMTSLEPEDTAVYYCYAQTTAWRGGVWGQGTQVTVSS
notes: as for B1
B22: 13B7 (VHH)
VHH: EVQLVESGGGLVQAGGSLRLSCAASRSISPMGWYRQAPGKQRELVAIMPSSGTPIYADSVQGRFTISRDNAKNTVYLQMNSLKPEDTAVYYCNVGGGYWGQGTQVTVSS
notes: as for B16
B23: 13F11-13E8-A647 (bispecific antibody)
chain: EVQLVESGGRLVQPGDSLRLSCAASGRTFSDNAMGWFRQAPGKERRFVAGISWAGGSTYYSDSVKGRFTISRDNAKNTVYLQMNSLKPEDTAVYYCAAGLRAWVQRMPKDYNYWGQGTQVTVSSGGGGSGGGGSGGGGSEVQLVESGGGLVQAGGSLRLSCAASRSISPMGWYRQAPGKQRELVAIMPSSGPPIYADSVQGRFTISRDNAKNTVYLQMNSLKPEDTAVYYCNVGGGYWGQGTQVTVSS
modifications: Alexa Fluor 647 coupled by maleimide to the C-terminal free cysteine, which is not in the letters
notes: Biparatopic tandem VHH; not shown: C-terminal tail: free Cys, possible thrombin site and His6 tag
B24: 13E8-13F11-A647 (bispecific antibody)
chain: EVQLVESGGGLVQAGGSLRLSCAASRSISPMGWYRQAPGKQRELVAIMPSSGPPIYADSVQGRFTISRDNAKNTVYLQMNSLKPEDTAVYYCNVGGGYWGQGTQVTVSSGGGGSGGGGSGGGGSEVQLVESGGRLVQPGDSLRLSCAASGRTFSDNAMGWFRQAPGKERRFVAGISWAGGSTYYSDSVKGRFTISRDNAKNTVYLQMNSLKPEDTAVYYCAAGLRAWVQRMPKDYNYWGQGTQVTVSS
modifications: Alexa Fluor 647 coupled by maleimide to the C-terminal free cysteine, which is not in the letters
notes: Biparatopic tandem VHH, reciprocal order; not shown: C-terminal tail: free Cys, possible thrombin site and His6 tag
B25: SP28P (VHH)
VHH: EVQLVESGGGLVQAGGSLRLSCAASGSIVSFNGINWYRQAPGKQREWVGGITQGGNTMYADSVRGRFTISRDNTKNTMYLQMNSLKPEDTAVYYCRRPPVASWGQGTQVTVSS
notes: as for B6
B26: 13E5 (VHH)
VHH: EVQLVESGGGLVQAGGSLRLSCAASGLTFSRYTMSWYRQAPGKEREVVAAISSGDSTYHEDSVKGRFIISRDNAKNTVYLQMNSLKTEDTAVYYCRANGPGTYWGQGTQVTVSS
notes: as for B16

What was measured:
[1] = target: T2, recombinant hPDGFRB ectodomain (human, UniProt P09619 33-532); experiment: phage ELISA and binding assay on hPDGFRB-ECD; values only in FIG. 5
T2 construct: extracellular domain; also called hPDGFRB-ECD; human PDGFRB ECD
T2 sequence (P09619 33-532): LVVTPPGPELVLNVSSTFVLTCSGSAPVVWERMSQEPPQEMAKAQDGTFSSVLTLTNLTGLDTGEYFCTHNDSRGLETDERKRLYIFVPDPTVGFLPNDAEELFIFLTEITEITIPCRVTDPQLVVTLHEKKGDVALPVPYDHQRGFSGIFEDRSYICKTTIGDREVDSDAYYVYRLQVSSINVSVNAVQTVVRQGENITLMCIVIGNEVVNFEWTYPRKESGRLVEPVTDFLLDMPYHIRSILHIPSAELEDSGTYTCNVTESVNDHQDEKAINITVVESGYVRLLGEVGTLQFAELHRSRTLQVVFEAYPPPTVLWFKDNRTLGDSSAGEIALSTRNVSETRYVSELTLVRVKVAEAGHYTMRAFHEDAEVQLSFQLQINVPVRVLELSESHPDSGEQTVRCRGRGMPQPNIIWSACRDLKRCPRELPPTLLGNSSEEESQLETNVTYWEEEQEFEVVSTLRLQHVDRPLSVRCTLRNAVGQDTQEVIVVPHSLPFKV

[2] = target: T3, recombinant human extracellular domain of IGF2R (human, UniProt P11717 41-2304); experiment: phage ELISA on hIGF2R-ECD
T3 construct: extracellular domain; Recombinant, immobilized on plates; also called hIGF2R-ECD; human IGF2R ectodomain (ECD)
Method: After the second selection round, 94 phage clones were randomly picked and assessed for binding to hIGF2R-ECD in a phage ELISA. Clones showing affinity were analyzed by restriction enzyme analysis using Hinfl and then categorized according to their restriction pattern. From each category, multiple clones were selected, and the amino acid sequences of these binders were identified (Table 2).

[3] = target: T1, recombinant rPDGFRB ectodomain; experiment: phage ELISA and binding assay on rPDGFRB-ECD; values only in FIG. 6
[4] = target: T3, recombinant human extracellular domain …; experiment: direct binding assay of the Alexa Fluor 647 conjugate on hIGF2R-ECD, one-site specific binding fit
Method: These conjugates were then subjected to direct binding assays on immobilized hIGF2R-ECD, meaning that plates were read out immediately after washing, without additional detection steps. […] For detailed analysis, binding parameters KD and Bₘₐₓ were calculated in Graphpad (version 8.3), using one-site specific binding analysis (FIG. 8D).
Based on their high affinity and binding to non-overlapping receptor epitopes, VHHs 13F11 and 13E8 were selected for the design of biparatopic and bivalent VHH constructs. Two VHHs were fused with a flexible linker, consisting of three Gly-Gly-Gly-Gly-Ser repeats (FIG. 8A). The sequences were codon optimized for expression in E. coli and obtained as synthesized DNA fragments from GeneArt. The DNA fragments encoding VHHs were cloned into a vector pET28-based vector introducing a C-terminal free cysteine for site-directed conjugation and His6 tag for IMAC purification (FIG. 8A). The VHH constructs were produced and purified as described in example 4. […] In a similar binding assay, IR dye 800 (IRD800) conjugates were prepared (as outlined in example 10.2) of the monomeric VHHs 13F11 and 13E8, the biparatopic VHH construct 13F11-13E8, the reciprocal biparatopic construct 13E8-13F11, the bivalent VHH construct 13F11-13F11, and the non-binding (control-) VHH R2. Conjugated constructs were then subjected to binding assay as described above.

| Binder | binding result [1] | binding result [2] | further results |
| --- | --- | --- | --- |
| B1 | binds |  |  |
| B2 | binds |  |  |
| B3 | binds |  |  |
| B4 |  | binds |  |
| B5 | binds |  |  |
| B6 |  |  | binding result [3]: binds |
| B7 |  |  | binding result [3]: binds |
| B8 |  |  | binding result [3]: binds |
| B9 |  |  | Kd [4]: 3.1 nM |
| B10 | binds |  |  |
| B11 | binds |  |  |
| B12 | binds |  |  |
| B13 |  |  | binding result [3]: binds |
| B14 |  | binds |  |
| B15 | binds |  |  |
| B16 |  | binds |  |
| B17 |  | binds |  |
| B18 |  | binds |  |
| B19 |  | binds |  |
| B20 |  | binds |  |
| B21 | binds |  |  |
| B22 |  | binds |  |
| B23 |  |  | Kd [4]: 2.5 nM |
| B24 |  |  | Kd [4]: 2.5 nM |
| B25 |  |  | binding result [3]: binds |
| B26 |  | binds |  |
